Measurements reported in patent publication US20160362487A1 (Regeneron, published 2016).
Substitutions are numbered along the chain they refer to. Names and notes keep the numbering of the source.

T1: human IL-33 (R&D Systems, #3625-IL-010/CF) (human, UniProt O95760 112-270)
T1 sequence (looked up): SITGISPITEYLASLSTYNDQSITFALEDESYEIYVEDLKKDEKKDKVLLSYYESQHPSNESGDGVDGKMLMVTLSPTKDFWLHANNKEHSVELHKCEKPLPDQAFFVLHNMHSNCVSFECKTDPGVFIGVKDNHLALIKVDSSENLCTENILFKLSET

T2: cynomolgus monkey IL-33 expressed with a C-terminal hexahistidine tag (cynomolgus monkey)
T2 construct: also called MfIL-33-6His; Mf-IL-33-6His
T2 chain: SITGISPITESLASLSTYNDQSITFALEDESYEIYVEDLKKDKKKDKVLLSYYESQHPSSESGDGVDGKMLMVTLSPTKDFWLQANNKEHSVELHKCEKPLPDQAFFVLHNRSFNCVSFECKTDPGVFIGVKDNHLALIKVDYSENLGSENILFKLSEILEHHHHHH

T3: biotinylated hIL-33 protein (R&D systems, Cat #3625-IL/CF) (human, UniProt O95760 112-270, biotinylated (sites not given))
T3 construct: Same commercial protein as m21, biotin-labelled; also called biotin-hIL-33
T3 sequence (looked up): T1 sequence (looked up)

B1: H4H9672P (antibody, human IgG4, V domains shown)
VH: EVQLVESGGGLVQPGGSLRLSCAASGFTLRSYVMYWVRQGPGKGLEGVSGISGSSGGTYYTDSVKGRFTISRDNSKNTLFLQMNSLRAEDTAVYFCARSVYSTTWYGGFQHWGQGTLVTVSS
VL: DIQMTQSPSSVSVSVGDRVTITCRASQVISSWLAWYQLKPGKAPKLLIYAASSLQSGVPSRFSGSGSGTDFTLTISGLQPEDFAVYYCQQTNSFPLTFGGGTKVEIK
notes: Human IgG4 Fc (H4H)
B2: H4H9667P (antibody, human IgG4, V domains shown)
VH: EVQLVESGGGLVQPGGSLRLSCAASGFTFSTYSMHWVRQAPGKGLEYVSTINNNGDTTYYADSVKGRFTISRDNSKNTLYLQLGSLRPEDMAVYYCARQTYTSSWYGGFDSWGQGTLVTVSS
VL: DIQMTQSPSSVSASVGDRVTITCRASQGITSWLAWYQQKPGKAPKLLIYAASNLQSGVPSRFSGSGSGTDFTLTITSLQPEDFATYYCQQANSLPFTFGPGTKVDIK
notes: Human IgG4 Fc (H4H)
B3: H4H9671P (antibody, human IgG4, V domains shown)
VH: B1 VH with V33F, Y35T, G40V, G50A, S54I, S99T, T103S, T104S, W105Y
VL: B1 VL with V28G, L38Q, A50V, G77S, V85T
notes: Human IgG4 Fc (H4H)
B4: H1M9559N (antibody, mouse IgG1, V domains shown)
VH: QVQLVESGGGVVQPGRSLRLSCAASGFTFSSYGMHWVRQAPGKGLEWVAVIWYDGRNKYYTDSVKGRFTISRDNSKNTLYLQMDSLRAEDTAVYYCARERYISSYYGGFDPWGQGALVTVSS
VL: B2 VL with T30S, L46V, N53S, T76S, L94F, V104L
notes: Human variable domains, mouse IgG1 Fc (H1M)
B5: H4H9676P (antibody, human IgG4, V domains shown)
VH: EVQLVESGGGLVQPGGSLRLSCSASGFTFSSYAMNWVRQAPGKGLEWVTAISGSGGGTYYADSVKGRFTISRDNSKNSLFLQLNSLRAEDTAVYYCAKQTYTSSWYGGFDIWGQGTMVTVSS
VL: B2 VL with I29F, T30S, K39I, N53R, S63R, T76S, L94F, F96L, P100G, D105E
notes: Human IgG4 Fc (H4H)
B6: H4H9675P (antibody, human IgG4, V domains shown)
VH: EVQLVESGGNLEQPGGSLRLSCTASGFTFSRSAMNWVRRAPGKGLEWVSGISGSGGRTYYADSVKGRFTISRDNSKNTLYLQMNSLSAEDTAAYYCAKDSYTTSWYGGMDVWGHGTTVTVSS
VL: B2 VL with T30F, N53S, T76S, T85I, L94V, F96I, P100Q, K103R, V104L, D105E
notes: Human IgG4 Fc (H4H)
B7: H4H9670P (antibody, V domains shown)
VH: EVQLVESGGGLVQPGGSLRLSCAASGFTLSSYAMSWVRQAPGKGLEWVSAISGSGGSTYYADSVKGRFTISRDNSKNSLYLQLNSLRAEDTAVYYCAKTLYTTSWYGGFQHWGQGTLVTVSS
VL: DIQMTQSPSSVSASIGDRVTITCRASQGISSWLAWYQQKPGKVPKLLIYAASSLQSGFPSRFSGSGSGTDFTLTISSLQPEDFATYYCQQTHSFPWTVGQGTKVEIK
notes: Human IgG4 Fc (H4H)

target: T1, human IL-33 (R&D Systems, …); assay: cell-based or functional assay

IC50, inhibition of 10 pM hIL-33 activation of HEK293/hST2/NFkB-luciferase cells [M]	Binder
2.5e-11	B1
7.1e-11	B2
2.5e-11	B3
2e-09	B4
3.5e-11	B5
7.5e-12	B6
1.2e-10	B7

target: T1, human IL-33 (R&D Systems, …); assay: SPR 25C pH7.4, mAb captured
Protocol: (§1) Equilibrium dissociation constants (KD values) for IL-33 binding to purified anti-IL-33 monoclonal antibodies were determined using a real-time surface plasmon resonance biosensor using a Biacore 4000 instrument. The Biacore sensor surface was first derivatized by amine coupling with either a polyclonal rabbit anti-mouse antibody (GE, # BR-1008-38) or with a monoclonal mouse anti-human Fc antibody (GE, # BR-1008-39) to capture anti-IL-33 monoclonal antibodies expressed with mouse or with human IgG4 constant regions, respectively. All Biacore binding studies were performed in 0.01M ADA pH 7.4, 0.15M NaCl, 3 mM EDTA, and 0.05% v/v Surfactant Tween-20 (ABS-ET running buffer). […] Association of either hIL-33 or MfIL-33-6His to the captured monoclonal antibody was monitored for 4 minutes and their dissociation in ABS-ET running buffer was monitored for 10 minutes. The effect of reduced pH on the binding of each anti-IL-33 antibody to either hIL-33 or MfIL-33-6His was studied using an in-line pH chase assay format in 0.01M ADA pH 6.0, 0.15M NaCl, 3 mM EDTA, and 0.05% v/v Surfactant Tween-20 (ABS-ET pH6 buffer). To achieve this, association of either hIL-33 or MfIL-33-6His to the captured monoclonal antibody was monitored for 4 minutes in ABS-ET running buffer. Following a 30 second dissociation of either hIL-33 or MfIL-33-6His in ABS-ET running buffer, ABS-ET pH6 buffer was injected for 3 minutes, and the analyte dissociation under the low-pH conditions was measured. All the binding kinetic experiments were performed at both 25° C. and 37° C. Kinetic association (kₐ) and dissociation (kd) constants were determined by fitting the real-time sensorgrams to a 1:1 binding model using Scrubber 2.0c curve fitting software. Binding dissociation equilibrium constants (KD) and dissociative half-lives (t½) were calculated from the kinetic rate constants as: […]

Kd [nM]	koff [s⁻¹]	kon [M⁻¹ s⁻¹]	t½ [min]	Binder
0.527	0.000352	668000	33	B1
0.395	0.000252	637000	46	B2
0.453	0.000349	771000	33	B3
0.678	0.000274	404000	42	B4
0.334	0.000345	1.03e+06	33	B5
0.254	0.000258	1.02e+06	45	B6
0.368	0.000289	786000	40	B7

Target: T2, cynomolgus monkey IL-33 expressed with …
Assay: SPR 25C pH7.4, mAb captured
Protocol: as §1

Kd [nM]	koff [s⁻¹]	kon [M⁻¹ s⁻¹]	t½ [min]	Binder
8.22	0.0036	437000	3.2	B1
2.89	0.000991	343000	12	B2
2.55	0.0015	587000	8	B3
3.82	0.00123	321000	9	B4
4.84	0.00412	852000	2.8	B5
2.55	0.00129	506000	9	B6
4.77	0.0021	440000	6	B7

target: T3, biotinylated hIL-33 protein (R&D …); assay: competition ELISA, 30 pM biotin-hIL-33 on coated hST2-hFc
Protocol: The ability of anti-IL-33 antibodies to block either human IL-33 (hIL-33) or cynomologus monkey IL-33 binding to the human ST2 receptor was measured using a competition sandwich ELISA. […] The antibody/IL-33 mixtures were incubated for 1 hour at room temperature before they were transferred to the hST2-hFc-coated microtiter plates. After incubating for 1 hour at room temperature, the wells were then washed, and plate-bound biotin-hIL-33 was detected with streptavidin conjugated with horse-radish peroxidase (HRP) (Thermo Scientific, Cat # N200), and plate-bound MfIL-33-6His was detected with a HRP conjugated anti-His monoclonal antibody (Qiagen, #34460). All samples were developed with a TMB solution (BD biosciences, #51-2607KC) to produce a colorimetric reaction and then quenched by acidification with 1M sulfuric acid before measuring absorbance at 450 nm on a Victor X5 plate reader. Data analysis was performed using a sigmoidal dose-response model within Prism™ software. […] Percent blockade was calculated as the ratio of the reduction in signal observed in the presence of antibody relative to the difference between the signal with IL-33 alone and background (signal from HRP-conjugated secondary antibody or streptavidin alone). The absorbance measured for the constant concentration of biotin-hIL-33 or MfIL-33-6His alone is defined as 0% blocking and the absorbance measured for no added IL-33 is defined as 100% blocking.

% Maximum blocking [%]	IC50 [nM]	Binder
63	0.44	B1
78	0.41	B2
46	0.46	B3
88	0.14	B4
54	0.46	B5
58	0.44	B6
69	0.48	B7

target: T1, human IL-33 (R&D Systems, …); assay: BLI; hIL-33 pre-mixed with mAb-2 Isotype control 1
Protocol: Binding competition between a panel of different anti-IL-33 monoclonal antibodies was determined using a real time, label-free bio-layer interferometry assay on an Octet® HTX biosensor (ForteBio, A Division of Pall Life Sciences). The experiment was performed at 25° C. using a buffer of 0.01M HEPES pH7.4, 0.15M NaCl, 0.05% v/v Surfactant Tween-20, and 0.1 mg/ml BSA (HBS-ET kinetics buffer) with the plate shaking at a speed of 1000 rpm. To assess whether two antibodies were able to compete with one another for binding to human IL-33, a pre-mix assay format was used where 100 nM of human IL-33 (R&D Systems; #3625-IL-010/CF) was pre-mixed with 500 nM of different anti-IL-33 monoclonal antibodies (subsequently referred to as mAb-2) for at least 2 hours prior to running the binding competition assay. […] Following the capture step, unoccupied anti-mouse Fc polyclonal antibody and anti-human Fc polyclonal antibody on the Octet biosensors were saturated by submerging them for 4 minutes into wells containing 200 μg/mL of a non-specific monoclonal antibody with a mouse Fc or with a human Fc, respectively. Finally, the Octet biosensors were immersed for 4 minutes into wells containing the pre-mixed samples of 100 nM of human IL-33 and 500 nM of mAb-2. At the end of each cycle, the non-covalently captured anti-IL-33 antibodies along with the bound pre-complex of human IL-33 and mAb-2 were removed from the biosensors using three alternate 20 second immersions into 10 mM HCl followed by submerging into HBS-ET kinetics buffer. The biosensors were washed in HBS-ET kinetics buffer in between every step of the experiment. The real-time binding response was monitored during the binding events, and the binding response (in units of nm) at the end of every step was recorded.

mAb-1 Binding to the Pre-complex of mAb-2 & hIL-33 [nm]	Binder
0.16	B1
0.23	B2
0.13	B3
0.06	B4
0.11	B5
0.13	B6
0.19	B7
